In this data set the target is Glypican-3 (GPC3) (UniProt P51654 25-554). The data set is described as follows: electrochemical sandwich aptasensor (DPV silver stripping; EIS); GPC3 captured by GPC3 antibody on Au NPs@rGO/SPE; aptamer on H-rGO-Pd NPs; response 0.01-100 ug/mL, LOD 3.30 ng/mL (not a Kd); PBS 0.1 mol/L as electrolyte; probe in Tris-EDTA buffer; 5.0 umol/L GPC3Apt; response time 30 min; incubation temperature tested 4-37 C; pH not given in material. As to conditions: protein: commercial; label: adsorbed on H-rGO-Pd NPs nanozyme (signal probe).
Chain of Glypican-3 (GPC3) (P51654 25-554): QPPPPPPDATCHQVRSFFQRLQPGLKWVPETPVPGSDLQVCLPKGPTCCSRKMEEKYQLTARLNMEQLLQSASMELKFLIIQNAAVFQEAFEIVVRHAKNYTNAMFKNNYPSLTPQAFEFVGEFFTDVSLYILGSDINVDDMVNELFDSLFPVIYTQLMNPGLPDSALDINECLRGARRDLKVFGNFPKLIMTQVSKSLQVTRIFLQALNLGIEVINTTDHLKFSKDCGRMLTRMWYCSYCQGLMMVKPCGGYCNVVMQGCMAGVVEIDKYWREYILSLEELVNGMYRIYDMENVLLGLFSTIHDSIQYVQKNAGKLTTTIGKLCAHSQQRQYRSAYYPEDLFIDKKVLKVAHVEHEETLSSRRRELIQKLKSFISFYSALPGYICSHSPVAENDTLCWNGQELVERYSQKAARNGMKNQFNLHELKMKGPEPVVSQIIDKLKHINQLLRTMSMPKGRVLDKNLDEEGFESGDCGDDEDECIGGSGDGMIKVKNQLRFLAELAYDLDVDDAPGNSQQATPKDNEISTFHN

Results on one molecule are retold here after publication PMC10004744, “H-rGO-Pd NPs Nanozyme Enhanced Silver Deposition Strategy for Electrochemical Detection of Glypican-3”.

B1: GPC3Apt (ssDNA)
DNA: TAACGCTGACCTTAGCTGGATTTTACATGTTCCA
modifications: 5'-NH2
Regarding B1, the binding result is listed as “binds”.
